Here are results for 4 molecules from patent US20250312475A1.

Where two headings read alike, the source gives them in different places.

Assay [1] concerns the target HIV-1 Env of 20 pseudotyped viruses representing 10 different HIV-1 clades. Description: cell-based or functional assay.
Assay [2] has the same target. Kind of assay: cell-based or functional assay. The source holds these as a separate data set.

B1: Binding Protein 2 (protein)
light 1: DFVLTQSPHSLSVTPGESASISCKSSHSLIHGDRNNYLAWYVQKPGRSPQLLIYLASSRASGVPDRFSGSGSDKDFTLKISRVETEDVGTYYCMQGRESPWTFGQGTKVDIKDKTHTASELTQDPAVSVALKQTVTITCRGDSLRSHYASWYQKKPGQAPVLLFYGKNNRPSGIPDRFSGSASGNRASLTITGAQAEDEADYYCSSRDKSGSRLSVFGGGTKLTVLDKTHTRTVAAPSVFIFPPSDEQLKSGTASVVCLLNNFYPREAKVQWKVDNALQSGNSQESVTEQDSKDSTYSLSSTLTLSKADYEKHKVYACEVTHQGLSSPVTKSFNRGEC
heavy 1: EVRLVESGGGLVKPGGSLRLSCSASGFDFDNAWMTWVRQPPGKGLEWVGRITGPGEGWSVDYAESVKGRFTISRDNTKNTLYLEMNNVRTEDTGYYFCARTGKYYDFWSGYPPGEEYFQDWGQGTLVIVSSDKTHTQVHLTQSGPEVRKPGTSVKVSCKAPGNTLKTYDLHWVRSVPGQGLQWMGWISHEGDKKVIVERFKAKVTIDWDRSTNTAYLQLSGLTSGDTAVYYCAKGSKHRLRDYALYDDDGALNWAVDVDYLSNLEFWGQGTAVTVSSDKTHTASTKGPSVFPLAPSSKSTSGGTAALGCLVKDYFPEPVTVSWNSGALTSGVHTFPAVLQSSGLYSLSSVVTVPSSSLGTQTYICNVNHKPSNTKVDKKVEPKSCDKTHTCPPCPAPELLGGPSVFLFPPKPKDTLMISRTPEVTCVVVDVSHEDPEVKFNWYVDGVEVHNAKTKPREEQYNSTYRVVSVLTVLHQDWLNGKEYKCKVSNKALPAPIEKTISKAKGQPREPQVYTLPPCRDELTKNQVSLWCLVKGFYPSDIAVEWESNGQPENNYKTTPPVLDSDGSFFLYSKLTVDKSRWQQGNVFSCSVLHEALHSHYTQKSLSLSPG
heavy 2: RAHLVQSGTAMKKPGASVRVSCQTSGYTFTAHILFWFRQAPGRGLEWVGWIKPQYGAVNFGGGFRDRVTLTRDVYREIAYMDIRGLKPDDTAVYYCARDRSYGDSSWALDAWGQGTTVVVSAASTKGPSVFPLAPSSKSTSGGTAALGCLVKDYFPEPVTVSWNSGALTSGVHTFPAVLQSSGLYSLSSVVTVPSSSLGTQTYICNVNHKPSNTKVDKKVEPKSCDKTHTCPPCPAPELLGGPSVFLFPPKPKDTLMISRTPEVTCVVVDVSHEDPEVKFNWYVDGVEVHNAKTKPREEQYNSTYRVVSVLTVLHQDWLNGKEYKCKVSNKALPAPIEKTISKAKGQPREPQVCTLPPSRDELTKNQVSLSCAVKGFYPSDIAVEWESNGQPENNYKTTPPVLDSDGSFFLVSKLTVDKSRWQQGNVFSCSVLHEALHSHYTQKSLSLSPG
light 2: YIHVTQSPSSLSVSIGDRVTINCQTSQGVGSDLHWYQHKPGRAPKLLIHHTSSVEDGVPSRFSGSGFHTSFNLTISDLQADDIATYYCQVLQFFGRGSRLHIKRTVAAPSVFIFPPSDEQLKSGTASVVCLLNNFYPREAKVQWKVDNALQSGNSQESVTEQDSKDSTYSLSSTLTLSKADYEKHKVYACEVTHQGLSSPVTKSFNRGEC
In assay [1], B1 registered a % VS Neutralized: IC80 < 1 µg/mL (of 20 viruses) of 65%, a % VS Neutralized: IC80 < 50 µg/mL (of 20 viruses) of 90%, a Geometric Mean (IC80) of 0.222 µg/mL and a Median IC80 of 0.375 µg/mL. In assay [1], this molecule came in with a Total VS Neutralized: IC80 < 1 µg/mL (of 20 viruses) of 13 viruses and a Total VS Neutralized: IC80 < 50 µg/mL (of 20 viruses) of 18 viruses.

B2: Binding Protein 3 (protein)
light 1: ASELTQDPAVSVALKQTVTITCRGDSLRSHYASWYQKKPGQAPVLLFYGKNNRPSGIPDRFSGSASGNRASLTITGAQAEDEADYYCSSRDKSGSRLSVFGGGTKLTVLDKTHTDFVLTQSPHSLSVTPGESASISCKSSHSLIHGDRNNYLAWYVQKPGRSPQLLIYLASSRASGVPDRFSGSGSDKDFTLKISRVETEDVGTYYCMQGRESPWTFGQGTKVDIKDKTHTRTVAAPSVFIFPPSDEQLKSGTASVVCLLNNFYPREAKVQWKVDNALQSGNSQESVTEQDSKDSTYSLSSTLTLSKADYEKHKVYACEVTHQGLSSPVTKSFNRGEC
heavy 1: QVHLTQSGPEVRKPGTSVKVSCKAPGNTLKTYDLHWVRSVPGQGLQWMGWISHEGDKKVIVERFKAKVTIDWDRSTNTAYLQLSGLTSGDTAVYYCAKGSKHRLRDYALYDDDGALNWAVDVDYLSNLEFWGQGTAVTVSSDKTHTEVRLVESGGGLVKPGGSLRLSCSASGFDFDNAWMTWVRQPPGKGLEWVGRITGPGEGWSVDYAESVKGRFTISRDNTKNTLYLEMNNVRTEDTGYYFCARTGKYYDFWSGYPPGEEYFQDWGQGTLVIVSSDKTHTASTKGPSVFPLAPSSKSTSGGTAALGCLVKDYFPEPVTVSWNSGALTSGVHTFPAVLQSSGLYSLSSVVTVPSSSLGTQTYICNVNHKPSNTKVDKKVEPKSCDKTHTCPPCPAPELLGGPSVFLFPPKPKDTLMISRTPEVTCVVVDVSHEDPEVKFNWYVDGVEVHNAKTKPREEQYNSTYRVVSVLTVLHQDWLNGKEYKCKVSNKALPAPIEKTISKAKGQPREPQVYTLPPCRDELTKNQVSLWCLVKGFYPSDIAVEWESNGQPENNYKTTPPVLDSDGSFFLYSKLTVDKSRWQQGNVFSCSVLHEALHSHYTQKSLSLSPG
heavy 2: RAHLVQSGTAMKKPGASVRVSCQTSGYTFTAHILFWFRQAPGRGLEWVGWIKPQYGAVNFGGGFRDRVTLTRDVYREIAYMDIRGLKPDDTAVYYCARDRSYGDSSWALDAWGQGTTVVVSAASTKGPSVFPLAPSSKSTSGGTAALGCLVKDYFPEPVTVSWNSGALTSGVHTFPAVLQSSGLYSLSSVVTVPSSSLGTQTYICNVNHKPSNTKVDKKVEPKSCDKTHTCPPCPAPELLGGPSVFLFPPKPKDTLMISRTPEVTCVVVDVSHEDPEVKFNWYVDGVEVHNAKTKPREEQYNSTYRVVSVLTVLHQDWLNGKEYKCKVSNKALPAPIEKTISKAKGQPREPQVCTLPPSRDELTKNQVSLSCAVKGFYPSDIAVEWESNGQPENNYKTTPPVLDSDGSFFLVSKLTVDKSRWQQGNVFSCSVLHEALHSHYTQKSLSLSPG
light 2: YIHVTQSPSSLSVSIGDRVTINCQTSQGVGSDLHWYQHKPGRAPKLLIHHTSSVEDGVPSRFSGSGFHTSFNLTISDLQADDIATYYCQVLQFFGRGSRLHIKRTVAAPSVFIFPPSDEQLKSGTASVVCLLNNFYPREAKVQWKVDNALQSGNSQESVTEQDSKDSTYSLSSTLTLSKADYEKHKVYACEVTHQGLSSPVTKSFNRGEC
In assay [1], B2 had a % VS Neutralized: IC80 < 1 µg/mL (of 20 viruses) of 60%, a % VS Neutralized: IC80 < 50 µg/mL (of 20 viruses) of 90%, a Geometric Mean (IC80) of 0.287 µg/mL and a Median IC80 of 0.469 µg/mL. In assay [1], this molecule registered a Total VS Neutralized: IC80 < 1 µg/mL (of 20 viruses) of 12 viruses and a Total VS Neutralized: IC80 < 50 µg/mL (of 20 viruses) of 18 viruses.

B3: V1/V2 directed Ab “b” (antibody, V domains shown)
VH: QVQLVESGGGVVQPGTSLRLSCAASQFRFDGYGMHWVRQAPGKGLEWVASISHDGIKKYHAEKVWGRFTISRDNSKNTLYLQMNSLRPEDTALYYCAKDLREDECEEWWSDYYDFGKQLPCAKSRGGLVGIADNWGQGTMVTVSS
VL: QSVLTQPPSVSAAPGQKVTISCSGNTSNIGNNFVSWYQQRPGRAPQLLIYETDKRPSGIPDRFSASKSGTSGTLAITGLQTGDEADYYCATWAASLSSARVFGTGTKVIVL
Consider B3, for which, in assay [2], the % VS Neutralized: IC80 < 1 µg/mL (of 20 viruses) came to 45%, the % VS Neutralized: IC80 < 50 µg/mL (of 20 viruses) was found to be 45%, the Geometric Mean (IC80) came out at 0.039 µg/mL and the Total VS Neutralized: IC80 < 1 µg/mL (of 20 viruses) came out at 9 viruses. In assay [2], the Total VS Neutralized: IC80 < 50 µg/mL (of 20 viruses) worked out at 9 viruses.

B4: V1/V2 directed Ab “a” (antibody, V domains shown)
VH: QVHLTQSGPEVRKPGTSVKVSCKAPGNTLKTYDLHWVRSVPGQGLQWMGWISHEGDKKVIVERFKAKVTIDWDRSTNTAYLQLSGLTSGDTAVYYCAKGSKHRLRDYALYDDDGALNWAVDVDYLSNLEFWGQGTAVTVSS
VL: DFVLTQSPHSLSVTPGESASISCKSSHSLIHGDRNNYLAWYVQKPGRSPQLLIYLASSRASGVPDRFSGSGSDKDFTLKISRVETEDVGTYYCMQGRESPWTFGQGTKVDIK
In assay [1], B4 yielded a % VS Neutralized: IC80 < 1 µg/mL (of 20 viruses) of 45%, a % VS Neutralized: IC80 < 50 µg/mL (of 20 viruses) of 55%, a Geometric Mean (IC80) of 0.094 µg/mL and a Total VS Neutralized: IC80 < 1 µg/mL (of 20 viruses) of 9 viruses. In assay [1], this molecule displayed a Total VS Neutralized: IC80 < 50 µg/mL (of 20 viruses) of 11 viruses.
